# Assays:
# [1] = molecular target: biotinylated oligopeptide spanning one repeat unit of the TARP phosphodomain, first tyrosine phosphorylated (pY1) (Chlamydia trachomatis serovar L2)
# [2] = molecular target: biotinylated oligopeptide spanning one repeat unit of the TARP phosphodomain, second tyrosine phosphorylated (pY2) (Chlamydia trachomatis serovar L2)
# biotinylated oligopeptide spanning one repeat unit of the TARP phosphodomain, second tyrosine phosphorylated (pY2) (Chlamydia trachomatis serovar L2), sequence (Q6GX35 174-222): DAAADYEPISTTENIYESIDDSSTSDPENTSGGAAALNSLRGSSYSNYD
# biotinylated oligopeptide spanning one repeat unit of the TARP phosphodomain, first tyrosine phosphorylated (pY1) (Chlamydia trachomatis serovar L2), sequence (Q6GX35 174-222): as above
Substance,guanine nucleotide exchange activity towards His-Rac1 of the pY1 oligopeptide precipitate from regular HeLa lysate (32P label retained on filters) [1],"guanine nucleotide exchange activity towards His-Cdc42 of the pY1 oligopeptide precipitate from lysate supplemented with PI 3,4,5-P3 (32P label retained on filters) [1]","guanine nucleotide exchange activity towards His-Rac1 of the pY1 oligopeptide precipitate from lysate supplemented with PI 3,4,5-P3 (32P label retained on filters) [1]","guanine nucleotide exchange activity towards His-Cdc42 of the pY2 oligopeptide precipitate from lysate supplemented with PI 3,4,5-P3 (32P label retained on filters) [2]","guanine nucleotide exchange activity towards His-Rac1 of the pY2 oligopeptide precipitate from lysate supplemented with PI 3,4,5-P3 (32P label retained on filters) [2]"
Sos1 (from UniProt Q07889 1-1333) (natural protein),31000 CPM,–,–,–,–
Vav2 (from UniProt P52735 1-878) (natural protein),–,28700 CPM,51200 CPM,23000 CPM,31700 CPM

# From article PMC2279300
